Numbering of substitutions follows the chain as printed. Values belong to the binder of their own block, whether it stands above or below them.
Experiments:
[1] = biological target: recombinant human TREM2-DAP12 fusion protein expressed on cells (human); assay: cell-based or functional assay
[2] = biological target: T1, mouse TREM2 on cells (mouse), Q99NH8; assay: KD cell binding
T1 chain: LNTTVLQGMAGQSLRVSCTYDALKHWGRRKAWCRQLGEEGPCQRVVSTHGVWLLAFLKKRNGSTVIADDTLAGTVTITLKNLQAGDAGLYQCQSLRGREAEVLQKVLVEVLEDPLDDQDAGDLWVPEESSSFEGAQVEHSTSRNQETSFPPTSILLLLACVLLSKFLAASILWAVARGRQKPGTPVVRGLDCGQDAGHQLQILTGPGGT

[3] = biological target: T1, mouse TREM2 on cells (mouse), Q99NH8; assay: FACS, WT mouse macrophages
[4] = biological target: T1, mouse TREM2 on cells (mouse), Q99NH8; assay: cell-based or functional assay
[5] = biological target: T1, mouse TREM2 on cells (mouse), Q99NH8; assay: FACS, BWZmT2 cells
[6] = biological target: TREM2 protein of the 'Percent APOE binding' column of Table 9B; assay: TREM2 binding to APOE with antibody; assay not described for this table

recombinant human TREM2-DAP12 fusion protein expressed on cells (human), sequence (chain, as listed by the source limits assumed, form in doubt): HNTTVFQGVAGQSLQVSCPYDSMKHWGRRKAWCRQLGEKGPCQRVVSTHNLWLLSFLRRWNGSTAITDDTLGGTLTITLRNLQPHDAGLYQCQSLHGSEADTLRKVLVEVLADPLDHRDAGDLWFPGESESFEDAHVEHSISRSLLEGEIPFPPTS

BWZhT2 LUC Plate-bound (FOB) [1]: 1.1 FOB
BWZhT2 LUC Solution (FOB) [1]: 3.6 FOB
BWZhT2 LUC Solution + PS (Δ Bmax) [1]: -40200
B1: 6H2 (antibody, IgG2a, V domains shown)
VL: DVLMTQTPLSLPVSLGDQASISCRSSQSIVHSNGNTYLEWYLQKPGQSPKLLIYKVSNRFSGVPDRFSGSGSGTDFTLKISRVEAEDLGVYYCFQGSHVPFTFGSGTKLEIK
VH: QVQLQESGPGLVQPSQSLSIICTVSAFSLTNYAVHWIRQSPGKGLEWLGVIWSGGSTAFNAAFISRLNISKDNSKSQVFFKMNSLQSDDTAIYYCATHYYRSTYAFSYWGQGTLVTVSA

BWZhT2 LUC Plate-bound (FOB) [1]: 1.07 FOB
BWZhT2 LUC Solution (FOB) [1]: 0.32 FOB
B2: 3A2 (antibody, IgG1, V domains shown)
VL: B1 VL with L3V, S28T, V30I, Q43R, F101Y, S105G, K108E
VH: QVQLQQSGAELVKPGASVKMSCKTSGYPFSNFWITWVKQRPGQGLVWIGDIYPGSDNSNYNEKFKTKATLTVDTSSSTAYMHLSSLTSEDSAVYFCAREAYYTNPGFAYWGQGTLVTVST

BWZhT2 LUC Plate-bound (FOB) [1]: 2.18 FOB
BWZhT2 LUC Solution (FOB) [1]: 0.31 FOB
B3: 10A9 (antibody, IgG1, V domains shown)
VL: B1 VL with L3V, S28T, V30I, Q43R, S61C, F101Y, S105G, K108E
VH: B2 VH with L11V, S58R, Y60F, K63R, T120A

BWZhT2 LUC Plate-bound (FOB) [1]: 2.48 FOB
BWZhT2 LUC Solution (FOB) [1]: 1.75 FOB
BWZhT2 LUC Solution + PS (Δ Bmax) [1]: 2930
B4: 9F5 (antibody, IgG1, V domains shown)
VL: DVVMTQTPLSLPVSLGDQASISCRSSQSLVHSNGYTYLHWYLQKPGQSPKLLIYKVSNRFSGVPDRFSGSGSGTDFTLKISRVEADDLGVYFCSQSTRVPYTFGGGTKLEIK
VH: QVQLQQSGPELVKPGASLKISCKASGYAFSSSWMNWVKQRPGKGLEWIGRIYPGDGDTNYNGEFRVRATLTADTSSTTAYMQLSSLTSEDSAVYFCARLLRNQPGESYAMDYWGQGASVTVSS

BWZhT2 LUC Plate-bound (FOB) [1]: 1.59 FOB
BWZhT2 LUC Solution (FOB) [1]: 1.07 FOB
BWZhT2 LUC Solution + PS (Δ Bmax) [1]: 2660
B5: 9G1 (antibody, IgG1, V domains shown)
VL: B4 VL with V3L, S25F, Y35N, K79R, R82G, D86E, Y101P
VH: QVQLQQSGAELVKPGASVKLSCKASGYIFTTYWIHWVKQRPGRGPEWIGRIDPNNGDTNYNEKFKTKATLTVDKPSSTADMQLSSLTSEDSAVYYCVMTGTDFDYWGQGTTLTVSS

Kd [2]: 5.86 nM
% Positive WT BMMACS [3]: 26.3%
BWZmT2 LUC Plate-bound (FOB) [4]: 7.8 FOB
BWZmT2 LUC Solution (FOB) [4]: 7.18 FOB
decrease in cell surface level of TREM2 on BMDM (FACS) [4]: 58%
MFI BWZmT2 [5]: 2870 MFI
Percent APOE binding [6]: 92.3%
B6: 3A7 (antibody, IgG1, V domains shown)
VL: not shown
VH: EVKLEESGGGLVQPGGSMKLSCAASGFTFSDAWMGWVRQSPEKGLEWVAEIRDKVKNHATYYAESVKGRFTISRDDSKSTVYLQMNTLRADDTGIYYCRLGVFDYWGQGTTLTVSS
modifications: not checked

BWZhT2 LUC Plate-bound (FOB) [1]: 5.46 FOB
BWZhT2 LUC Solution (FOB) [1]: 0.35 FOB
B7: 8A1 (antibody, IgG2a, V domains shown)
VL: DIQMTQSPASLSVSVGETVTITCRTSENVYSNLAWYQQKQGKSPQLLVYAATNLADGVPSRFSASGSATQFSLKINSLQSADFGSYYCHHFWGTPYTFGGGTKLEMN
VH: EVQLQQSGAELVKPGASVKISCKASGYAFSNYWMSWVKQRPGKGLEWIGQIYPGDGDTKYNGKFEGKATLTADKSSSTAYMQLSSLTSEDSAVYFCSREKGADYYGSTYSAWFSYWGQGTLVTVSA
